For this data set, the target named is GST-Bsx (zebrafish) (UniProt Q6R3Q6). Briefly: EMSA. Particulars: EMSA: DIG Gel Shift Kit (Roche) per manufacturer, 2.0 pmol GST-Bsx with 32 fmol DIG-oligonucleotide or 8 fmol DIG-147bp probe; buffer, pH and temperature not ….
Sequence of GST-Bsx (zebrafish) (Q6R3Q6 whole entry): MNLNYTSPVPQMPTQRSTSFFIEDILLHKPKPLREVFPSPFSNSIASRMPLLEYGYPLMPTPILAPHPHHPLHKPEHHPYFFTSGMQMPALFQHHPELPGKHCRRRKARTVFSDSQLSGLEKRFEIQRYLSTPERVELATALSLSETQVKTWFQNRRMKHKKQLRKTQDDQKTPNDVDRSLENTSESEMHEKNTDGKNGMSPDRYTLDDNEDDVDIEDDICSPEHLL
For the sequence “GATGGAGAAGTGGACGATCGGCACACCTCCGCAGATGAAGCCCGGAGAGCCGGCGCTGCGCTCTTATGTGAACCCCATGAGTCCAGATTAGGCATCGTACAGGAGTGAGTGGCCAGATTGGGGTCAGACAGGGGGATAATCCAGAGA (double strand) [147bp P3 mutant]”, the binding entry is “binds more weakly”.

Turning to “GATGGAGAAGTGGACGATCGGCACACCTCCGCAGATGAAGCCCGGAGAGCCGGCGCTGCGCTCTTATGTGAACCCCATGAGTCCATCGTAGGCAGATTACAGGAGTGAGTGGCCAGATTGGGGTCAGACAGGGGGATAATCCAGAGA (double strand) [147bp P4 mutant]”, the binding entry is on record as “binds”.

On to “TCTCTGGATTATCCCCCTGTCTGACCCCAATCTGGCCACTCACTCCTGTAATCTGCCTAATCTGGACTCATGGGGTTCACATAAGAGCGCAGCGCCGGCTCTCCGGGCTTCATCTGCGGAGGTGTGCCGATCGTCCACTTCTCCATC (double strand) [wt147bp]”, for which the binding entry is given as “binds”.

These data come from article PMC6779754.
